The supplement of paper PMC9170038

System: K4 kissing-loop RNA reporter
Assay: apparent KD of K4 kissing-loop reporter; higher = weaker reporter binding
Details: Eterna round: R107
Protocol: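 RNA-MaP round R107: designed RNA switches with theophylline, tryptophan, arginine or FMN aptamers are transcribed on-chip within common flanks. They are titrated with a labelled K4 kissing-loop RNA reporter in RNA-MaP buffer (100 mM Tris pH 7.5, 80 mM KCl, 4 mM MgCl2), without ligand or with the indicated ligand. Median apparent KD per design.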

[1] = input ligand: theophylline 20 uM
[2] = input ligand: tryptophan 2.4 mM
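Also: bound reporter read as fluorescence of individual clusters on recovered sequencing chips by microscopy, with normalized cluster intensities fitted with a binding model.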

Sequence | apparent KD of K4 kissing-loop reporter (input ligand: FMN 200 uM) | apparent KD of K4 kissing-loop reporter (input ligand: arginine 13.2 mM) | apparent KD of K4 kissing-loop reporter (input ligand: none) | apparent KD of K4 kissing-loop reporter [1] | apparent KD of K4 kissing-loop reporter [2]
AUUUAGACGAGUGAUGUUCGUGUUAUUACAGAGGAUAUGCGUAAAAGCAGAAGGCUGUAUUUAUAUUUGUUAUGUAAUUUUAAAA [JR_ExcFMNA_Sub006] | 75.2 nM | 105 nM | 85.9 nM | 94 nM | 63.9 nM
CGCGCUGCCUGAGGAUAUAGAAACGAGUGAUGUUCGUGGACAAGAGCCAGUGAUGUUGGGUUAUUUCUAGAAGGCAGGCGAUCGU [Exclusion FMN B GF5] | 124 nM | 106 nM | 128 nM | 125 nM | 97.5 nM
UCCUGCAAUGGACCACGAAAGUGGAUCGAUACCAGAGUCGAAAGACUCCCUUGGCAGCGAGUGAUGUUCGAAGCAGGUAAAUAAA [#SwitchBubble 21 #K4Late] | 492 nM | 483 nM | 478 nM | 410 nM | 358 nM
UUUGGAGUGGGAGGAUAUCCUAAUAUGGGUGAUGUUAGCGAUGUUGAAGGUGUAGUGAUGUUAUGCGGAGAAGGCCCAGUGUAGA [BDazzled - #18 - Exc. FMN B] | 166 nM | 146 nM | 245 nM | 273 nM | 221 nM
GGAUAGGACUGAGGAUAUGGUAGUGAUGUUACCAAACUGGUUAAACAUGUCAGAAAACUGGCAUGACCAGAAGGCGGUCCUAUCG [FmnBX 27 U10+G76] | 104 nM | 65.5 nM | 72.5 nM | 55.3 nM | 57.2 nM
CCUGCAGCUGUUACCGAGGGAUGCUACGGACGAGGACCGGUACGGCCGCCACUCGCCAGUGAUGUUGGUGAGGGAGGACGUUACU [KL-XTryp-A21] | 137 nM | 107 nM | 109 nM | 103 nM | 107 nM
AAACGUUGGUCGGAUACCAGCUUGAUCGGAAAACGAUCUGCUGGAGUGAUGUUCCAAUAAAGCCCUUGGCAGCCGACCGACGAAA [MAT - Same State Theophlline B - Mod of Eli - D15] | 662 nM | 659 nM | 1030 nM | 746 nM | 747 nM
UCCUAGGCUCGAAAGAGCCUAGGUAAGACUCAGGAUAUCUGGAAACAGAGAAGGGAGCUACUAGUGAUGUUAGGAAUUCCCUAAG | 126 nM | 97 nM | 124 nM | 119 nM | 106 nM
GGAUCCACCAGUGAUGUUGGAGAAAACUCGAAGGAUAUGACGAAAGUCAGAAGGUUGUAGACUGGACAAAGUCCGGUCGGAUCCA [FmnA 23 G30+U56] | 843 nM | 466 nM | 549 nM | 590 nM | 421 nM
ACUGCCAUUGCGGCCGCCACUAUCUCACUUUGCGAAUCUGCACCGACUGAGUGAUGUUCGGUAAAUAGGACCGGGCAAUGGGCCG [theeternabot_sameState_KL_Trp_B_26] | 611 nM | 479 nM | 633 nM | 281 nM | 657 nM
GUUACGCAUGGAAGGAGCGCGAUAAUAUUAAGUGAGUGAUGUUCACAAAGAAAAUAAAUAACGCAGGUAGGUCGCCAUGUGUAAC [Ex Arginine B K4 4] | 79.3 nM | 93.1 nM | 80.8 nM | 97.8 nM | 81.8 nM
UGUCAUUGGUCGGCCGCCACUUCAUAGAGAGUGAUGUUCUUUAAGACGGAUCGAAAGAUCUGUCGAAGGACCGGGACCGAUGACU [FiskerMod 10 - Jieux - Same State - Tryptophan B] | 924 nM | 527 nM | 1390 nM | 777 nM | 262 nM
AAGUGAUGUUGUAGUGAUGUUGUGAUGUUGCAGGAUAUAUAGUGAUGUAGAAGGGUAAGUACUUAUUUUUUUUUUGAGUGAUGUU [vcbczrmullin] | 96.6 nM | 45 nM | 76.5 nM | 58 nM | 83.7 nM
CCAUCGCUAUUCGAUACCAGCUCCUUAGUGAUGUUAAGGUUUUACCCACUGUAGGUGGGAAGCCCUUGGCAGCGAAUAGUGAUGG [Theophylline B K4 28] | 982 nM | 872 nM | 1150 nM | 538 nM | 1030 nM
UUAAUAUUGUCGGCCGCCACUGUUUAGUAUUUUGUAUAAUCUAUUUCAAAGUGAUGUUUUGAUUCCAGGACCGGGACAUUUGAUA [JR_Nu_ExcTryptoB_Sub031] | 597 nM | 414 nM | 536 nM | 486 nM | 298 nM
CGCGCGCGCGCGCGCGCGCGCGAAAAUGAUACCAGUAUAUAAGAAUACCCUUGGCAGCAUAAGAAAGAUAUAGUGAUGUUGUAUA [SSTheophA.A] | 212 nM | 76.5 nM | 279 nM | 316 nM | 161 nM
UUGGUUGUCGUAGGAUAUGUAGGAUAUUCUAAAAUAUGAAGUGAUGUUUCUAUAAUAAGAAGAAGGACAGAAGGACGAUAACCAU [FmnBS 2 - Salish transfer #DoubleAptamer] | 84.7 nM | 100 nM | 111 nM | 103 nM | 99.1 nM
AGUACAAUGGCGGCCGCCACUCAAUGGCAGAUCAAAGAUCUGUAUCACUCAGUGAUGUUGAGUGAGAGGACCGGGCCUUUGUACA [Omei KL Tryp B SS B v9] | 604 nM | 477 nM | 500 nM | 514 nM | 187 nM
GGCCGAAGAGAAGGAUAUGGUUUCACGCGUCGUUAGUGAUGUUAAUGCGCAUGCCUUAGUAUAGAGCCAGAAGGUCUGGUCAGAA [theeternabot_sameState_KL_FMN_B_34] | 170 nM | 199 nM | 219 nM | 210 nM | 213 nM
CACUUACGUAGUGAUGUUACGAUCUCUGAUACCAGACAACUCUAAGUCCCUUGGCAGCAGUCAUUUUGCUUAUAAUUUACUCAAA [JR_ExcTheophyA_Sub015] | 657 nM | 556 nM | 786 nM | 646 nM | 508 nM
UGUAUCAUCUAAGGAUAUAUCAUGUGAUGCACCGAGUAUCGCAUCAAUUCUGAGUGAUGUUCAGGUAUAGAAGGUAGAUGAUGCA [FMN B SS t2] | 207 nM | 178 nM | 212 nM | 259 nM | 228 nM
